Test: soluble on expression in E. coli; label from the status in PepcDB or PDB records

Row | Sequence | soluble on expression in E. coli
1 | MSQHNEKNPHQHQSPLHDSSEAKPGMDSLAPEDGSHRPAAEPTPPGAQPTAPGSLKAPDTRNEKLNSLEDVRKGSENYALTTNQGVRIADDQNSLRAGSRGPTLLEDFILREKITHFDHERIPERIVHARGSAAHGYFQPYKSLSDITKADFLSDPNKITPVFVRFSTVQGGAGSADTVRDIRGFATKFYTEEGIFDLVGHNTPIFFIQDAHKFPDFVHAVKPEPHWAIPQGQSAHDTFWDYVSLQPETLHNVMWAMSDRGIPRSYRTMEGFGIHTFRLINAEGKATFVRFHWKPLAGKASLVWDEAQKLTGRDPDFHRRELWEAIEAGDFPEYELGFQLIPEEDEFKFDFDLLDPTKLIPEELVPVQRVGKMVLNRNPDNFFAENEQAAFHPGHIVPGLDFTNDPLLQGRLFSYTDTQISRLGGPNFHEIPINRPTCPYHNFQRDGMHRMGIDTNPANYEPNSINDNWPRETPPGPKRGGFESYQERVEGNKVRERSPSFGEYYSHPRLFWLSQTPFEQRHIVDGFSFELSKVVRPYIRERVVDQLAHIDLTLAQAVAKNLGIELTDDQLNITPPPDVNGLKKDPSLSLYAIPDGDVKGRVVAILLNDEVRSADLLAILKALKAKGVHAKLLYSRMGEVTADDGTVLPIAATFAGAPSLTVDAVIVPCGNIADIADNGDANYYLMEAYKHLKPIALAGDARKFKATIKIADQGEEGIVEADSADGSFMDELLTLMAAHRVWSRIPKIDKIPA | soluble
2 | MILAIDLGTSGAKAAIIDSAGAVHEQTFVPYSTTKLPNGGVEQDPMQWVSAARQAVTRLPRSYSVVSFTGQMQDLICLDRAGRPLGQALLYNDARAAAEAARLNTVVPEWKDITGNRQTATSTAAMWLRLMEQSD | not soluble
3 | NIVLTQSPASLAVSLGQRATISCRANESVYSYGDSFMHWYQQKPGQPPKLLIYLASNLASGVPARFSGSGSRTDFTLTIDPVETDDAATYYCQQNNEDPWTFGGGTKLEIKRGDAAPTVSIFPPSSEQLTSGGASVVCFLNNFYPKDANVAWKIDGSERQNGVLNSWTDQDSKDSTYSMSSTLTLTKDEYERHNSYTCEATHKTSTSPIVKSFNR | soluble
4 | MTAPSQVLKIRRPDDWHVHLRDGDMLKTVVPYTSEIYGRAIVMPNLASPITTVDAAIAYRQRILDAVPAGHDFTPLMTCYLTDSLDADELERGFHEGVFTAAKLYPANATTNSSHGVTSVDAIMPVLERMEKLGIPLLVHGEVTHADVDIFDREARFIDTVMEPLRQRLTALKVVFEHITTKDAAQYVRDGNDYLAATITPQHLMFNRNDMLVGGIRPHLYCLPILKRNIHQQALRELVASGFTRAFLGTDSAPHSRHRKETSCGCAGCFNAPSALGSYAAVFEEMNALAHFEAFCSLNGPQFYGLPMNTGWVELVRDEQQIPGNIALADDSLVPFLAGETVRWSVKK | not soluble
5 | MFQLLAVCPMGLEAVVAREIQELGYETNVENGRIFFEGDASAIVKANLWLRTADRIKIVVGRFNATTFDELFEQTKALPWESIIDKEGNFPVQGRSVKSTLHSVPDCQAITKKAIVERLRRAYNEKGWLNESGAKYPVEVAILKDNVLLTIDTSGSGLNRRGYRLAQGEAPIKETLAASLIRLANWKGDTPLIDPFCGSGTIAIEACLIAQNIAPGFNREFVSEQWNIMPANIYDDYRDEADKMADYDKEIEVYASDIDPEMVEIAKRNAEEVGLSDIIKFSVKDVNTLTIDTEEPVALIGNPPYGERIGDREEVEEMYRYIGKLMKQHPFLSTYILTSNKEFEYLVNRKATKRRKLFNGYIECTYYQYWGKKTERKTIEN | not soluble
6 | MMRRGGQHLSPDPIGLGGGIQPQSYVHNPLEWVDPLGLTESGCKQPNSPENSQKPEVKKPNISTKIHDGAQGKHIEGHNNYVEGKSVIDAKPQELLDNYHAGNVNTSRVINENKIKVDFGDVNGTHKDMNGTNTSTSWGLIHSRKNGAHIVPALPDTILEHHHHHH | not soluble
7 | MGSDKIHHHHHHMVNEKRLLEEFLELVQIDSETKHEAEICKVLKRKFSDLGVDVKEDDTMDITGHGAGNLICTLKGTKQTDTIYFTSHMDTVVPGNGVKPVVENGYVKTDGTTILGADDKAGLAAMFEAIKVLKEENIEHGTIEFIITVGEESGLIGAKALDRPMITASYGYALDSDGKVGNIIVAAPTQAKVRAAIFGKTAHAGVEPEKGISAITIASKAISKMPLGRIDEETTANIGRFEGGTQTNIVCDEVHILAEARSLVPEKMEAQVQKMKAAFEEAAADMGGRAEVEIEVMYPGFKYQDGDQVVEIAKKAAAKIGRPSELQTSGGGSDANVIAGHGIPTVNLAVGYEQIHTKNEKMPIEELVKTAEMVVAIIEEAAK | not soluble
8 | GPSSPAGGEARVHVLVLSSWRSGSSFVGQLFNQHPDVFYLMEPAWHVWTTLSQGSAATLHMAVRDLVRSVFLCDMDVFDAYLPWRRNLSDLFQWAVSRALCSPPACSAFPRGAISSEAVCKPLCARQSFTLAREACRSYSHVVLKEVRFFNLQVLYPLLSDPALNLRIVHLVRDPRAVLRSREQTAKALARDNGIVLGTNGTWVEADPGLRVVREVCRSHVRIAEAATLKPPPFLRGRYRLVRFEDLAREPLAEIRALYAFTGLSLTPQLEAWIHNITHGSGPGARREAFKTSSRNALNVSQAWRHALPFAKIRRVQELCAGALQLLGYRPVYSEDEQRNLALDLVLPRGLNGFTWASSTASHPRN | soluble
9 | AGPGAEEEQLDTAEIAFQVKEQLLKHNIGQRVFGHYVLGLSQGSVSEILARPKPWRKLTVKGKEPFIKMKQFLSDEQNVLALRTIQVR | soluble
10 | MSLKKDTSEQSVEQSEVGLSLEELIRRGARDLIERAIEVEVQQLLAEYENVRMLGGSRAVVRNGYLPAREVLTAVGNVEVRVPKVRDRSGAGVKFNSALVPPYVRRSARVSAALPWLYLKGISTGDMREALTVLLGDEAKGLSPNVVSRLKTEWASDYAGWMKRDLSGSRYVYWWADGVHTSLRGEDDARQCLLVVIGVRLDGTKELVTVGDGHRESKASWLELLRDLKARGLEVGPRLAVGDGALGFWGALDELYPETRRQRCWVHKSANVLNALNALPKSLQAKAKAQLHEIWMAPTRAAAVSAFERFVECYQAKYPKAADKLVRDRDALLAFYDFPAEHWIHLRTTNPIESTFATVRHRTTRTKNCVSRSSFLGLAFKLVQEAEKSWRRIRGVERIAELMGGVVFKDGEPVKDEGHHHHHH | soluble
11 | MNYAFVVQARLGSTRLPGKILKPFYGNQSILDLMVHKLSAISNIPVIIATTNSVINEPIEKKALALGVKCFRGEENDVLKRFIDVAEYFDIQGIFRICSDNPFLDVHAARQLVEIAMKSCNDYISFDIDGTPSIKTHFGFWGEFVTLDALKRVIGFTDDLLYREHVTNYIYSHPELFNIQWISGSPVVSKHHNIRLTIDTLEDFSVAQRIYRDLQEKRVEISIEVIVDYVRRHAEYIQLMKQQIKKNSKLEHHHHHH | soluble
12 | MGHHHHHHSHMPSLNLFPSVSDSGFWTGGTALRNPPSRPPYLSIAMTTLVSLATDLKYGSTLLGRIKTVLDASVAQLTVADVTTEDIVNFLNSLNGIDHELFSFIRTYPVFFVLHLCTLDRTQTYTSGQVIKTIKHLITTFREVLCEDMGADNDSIISNSNILKDCSWYLTKLETEQMSTSIPHLPKSCITFPCMEQVHHLVHNATLATLPNSWTSPLPSLNSVYVQWFVLSYKHKVFPDEVPSSNIQDLADKMTNIYKHLFVPHTSQLTGASIILARSLDILSQFTPLEKIPSNSPAVAFGDDELSNIPSNCHLMFGHLIESIYMGMTYACTLGAVEQFIREAFDVVLGVASEIKRTASLSDLPTVTKLVNIKRILIEHGLSETRCEEYAQALPKWQHREGIYPFEETLDHFHQKLSTLIKFCLEFYNTLMLVSPTSISHSYLKENNYLLQLDRKSAASQGQGPDDINLLEKVFTFVYPQVPGQDLQRIHDAIDSDIMRTLFFSWVNRNWGIVLITQNPLMEPSCEHQVSEERVAAYCKRMPVGDLSYEPAMVSHKMFYKYFIRHIVGPTIQGIFSRKTSRNRALFQIRWLLSFAITDTPQLQEIRRPLGMFYFELLDIINGTNKPSAMKNLLDHALDLKKKINKINQTFSIPQDLILYLFVLDTGASYINSVDYITAIIPKVEHLLLRGRNILRLGSILCHTKYNYHPLTHQFTILSSSGQILEVHLETLKSLISQVEKDHSQLLMEITDLEGELRGEYSTVLSLLQDLEAYKQHELGIEFDTEPWNQLKQSFSGILSRISSGLSLLSKGCSSCLRKRFHDLFSQEIITPTILKAASAGNVEIIKNLKEIPVNLMAPPTDTSMTQAGGNPTDEDLTMLYSTYPQIFSQNAARGEKHPPQLKKYSSTYDRIPLDVNWQIFTQQTYTAEHAECPYTIVKIHDIIKLLS | not soluble
13 | MKRKVQVKNITIGEGRPKICVPIIGKNKKDIIKEAKELKDACLDIIEWRVDFFENVENIKEVKEVLYELRSYIHDIPLLFTFRSVVEGGEKLISRDYYTTLNKEISNTGLVDLIDVELFMGDEVIDEVVNFAHKKEVKVIISNHDFNKTPKKEEIVSRLCRMQELGADLPKIAVMPQNEKDVLVLLEATNEMFKIYADRPIITMSMSGMGVISRLCGEIFGSALTFGAAKSVSAPGQISFKELNSVLNLLHKSIN | not soluble
14 | MKYDTSELCDIYQEDVNVVEPLFSNFGGRASFGGQIITVKCFEDNGLLYDLLEQNGRGRVLVVDGGGSVRRALVDAELARLAVQNEWEGLVIYGAVRQVDDLEELDIGIQAMAAIPVGAAGEGIGESDVRVNFGGVTFFSGDHLYADNTGIILSEDPLDIE | soluble
15 | MAYVESFYMDASLESDADVLPASESDMFEAQFIADVPLDGDAIIRIVDSQLAFEQRNHVVSDYCTMKAAELEKNPNQLTMNSSVMDNQQYFAPPKSESSQYAWNTNDVVSSHHQYAAQSPNIYTNDYHTSEPSDYAYI | not soluble
16 | MKFLHTADLHLGKIVSGVSMLAEQEYILAQITKIAEEEQVDALILAGDLYDRAVPPADAVKVLNDILVKWNVELGIPIFAISGNHDSAERLAFGSQWYESSKLYMKGKCTSQFEAISFMDAEVWLVPYHEPAIIREAFADNSIRSFEDAMQAVTKQIRSKWDTSKAQILVGHAFVSGGIPSDSERQLAIGNVDRVSTDCFDGFTYTALGHLHHPHAIRHPSIFYSGSPLKYSFSEANDHKSVRIVELEGKELVSVTERFLTPKHDMRIISGTLAELTENLVENPDDFFQVNLMDEGALIDPMGKLRQFYPNILHLERKKQTLKETQDNFEEIMKKDDLELFGQFFEHVNGTELTETQKQKLADVFEQARKEDAE | not soluble
17 | MGSLDLPYASSFKGGSETFLQNVFESILKTYLRKNPMAKTIWELVKSVDNEKISYDHFFFRTFKVDGYGIDSLASFFMDYGYKVGGRLDFPKKKVQVLWLSPPDVHFPDNGYGIGNGPLPRLVIAELLVEELSPESQEIIRKYLKPEGGKQAVLSSTLGSLIWEKPTSTDFNQLAKESEFAAWTLVYGYTMNHLAFAVHRLKHRFSDIKCVKEYFEENGFELNKDGGVLKVSEDSLLLQVSAMSEKLVVEFADGVTQIVPASYIEFVERLVLPQFKDMPCDEIKEFHRREGLEQASAYHIMESTRFTA | soluble
18 | DEILIDPHAVLGPVDPQLMNYPAPSILKVVEKKEPKDIDDKTLIMADIAEKAINQVRETVFNLLKDKMDEEKAREVAKILTEGRWTHDYPLTVEELRQLGLKVSTDVPEEVYELMELYPQPMMQRHPGVEFVPSPPKGEKPSFK | not soluble
19 | MSKPYLAGLLLISPWALAASGSWSSESFGGTMTRGQQSVKSKPLQSPSPLPPGARATTVHWKIKTDGLTPSGLRIRLCNAARCVRLAGWAGEMPLPAGIAPEGPFRFEYHASEAGTLRSPVTILSNQLTVSYHSSH | not soluble

— the DeepSol protein solubility set
